According to patent US20260265389A1 (CANTAI THERAPEUTICS, published 2026):

Legend:
[1] = target: T1, biotinylated recombinant human TL1A (human, UniProt O95150 72-251, limits assumed, biotinylated (site not stated)); test: BLI (Octet); by Example 12 biotinylated recombinant human TL1A on streptavidin sensors, dipped into the bispecific antibody for 0-300 s; the sheet does not name the loaded protein or the antibody concentration
T1 sequence: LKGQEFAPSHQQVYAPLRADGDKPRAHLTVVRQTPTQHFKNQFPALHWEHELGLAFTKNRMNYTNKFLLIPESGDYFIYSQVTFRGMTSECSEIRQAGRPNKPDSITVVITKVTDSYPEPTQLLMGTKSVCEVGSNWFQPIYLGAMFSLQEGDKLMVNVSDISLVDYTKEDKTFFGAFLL
Description: Kinetic determination and assessment of pH dependency was performed on Octet BLI platform. Briefly, knob-in-hole bispecific antibodies that were prepared according to method described in Example 10 were used for this assay. Briefly, biotinylated recombinant human TL1A was diluted to 7.5 nM in kinetics buffer (1×PBS pH 7.4, 0.1% BSA, 0.05% Tween20, 0.05% sodium azide) and loaded onto streptavidin sensors for a period of 5 minutes. Sensors were then baselined in kinetics buffer before being dipped into bispecific antibodies diluted to varying concentrations, with two-fold serial dilutions for a 5-minute association step, followed by a 15-minute dissociation step. Top concentrations were determined based on approximate KD determined during a scouting experiment. Referencing was performed using a loaded sensor that was dipped into buffer as opposed to antibody, as well as unloaded sensors dipped into antibody. Then, data was aligned and fitted.

[2] = target: T2, IL-23 heterodimer (IL-23α & IL-12β) (Homo sapiens (Human), UniProt Q9NPF7 20-189; P29460 23-328); test: BLI (Octet); how IL-23 was offered is not described
T2 construct: also called heteromeric IL-23
T2 sequence 1: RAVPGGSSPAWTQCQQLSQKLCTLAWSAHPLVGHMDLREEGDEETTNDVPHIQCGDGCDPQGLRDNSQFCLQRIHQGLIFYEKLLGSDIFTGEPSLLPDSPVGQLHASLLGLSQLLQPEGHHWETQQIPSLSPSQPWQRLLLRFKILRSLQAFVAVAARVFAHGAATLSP
T2 sequence 2: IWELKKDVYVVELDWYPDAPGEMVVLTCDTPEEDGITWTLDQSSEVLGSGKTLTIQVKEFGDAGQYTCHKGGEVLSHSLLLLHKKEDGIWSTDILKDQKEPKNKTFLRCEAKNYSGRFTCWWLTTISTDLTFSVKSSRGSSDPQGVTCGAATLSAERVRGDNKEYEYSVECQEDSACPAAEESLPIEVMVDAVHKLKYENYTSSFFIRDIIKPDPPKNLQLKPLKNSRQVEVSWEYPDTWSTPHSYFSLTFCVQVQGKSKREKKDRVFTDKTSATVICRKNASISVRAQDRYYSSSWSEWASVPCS

[3] = target: T3, monomeric TL1A (human, UniProt O95150 72-251, limits assumed); test: SPR, antibody captured by anti-human IgG-Fc, TL1A monomer as analyte, pH 7.4; pH 7.4, monomeric TL1A as analyte
T3 construct: also called TL1A monomer
T3 sequence: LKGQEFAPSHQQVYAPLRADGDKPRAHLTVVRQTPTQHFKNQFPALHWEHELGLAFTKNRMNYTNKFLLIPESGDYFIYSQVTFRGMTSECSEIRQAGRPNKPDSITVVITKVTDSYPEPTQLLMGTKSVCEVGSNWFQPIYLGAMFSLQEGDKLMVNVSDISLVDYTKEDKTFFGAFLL
Description: Binding kinetic assays were performed for determining pH dependent binding activity of a lead TL1A binding antibody candidate, as identified in Example 3, and 7 different variants thereof using surface plasma resonance (SPR) spectroscopy. Each TL1A binding candidate comprised a VH sequence that comprised at least one modification in CDR or framework region of variable region of the VH sequence. Briefly, an amine-coupled anti-human IgG-Fc specific polyclonal antibody was immobilized on a SPR sensor chip. All TL1A binding antibody candidates were expressed at 1 mL scale in chinese hamster ovary (CHO) cells for 6 days, and supernatant was cleared of cells by centrifugation. To form a captured antibody array, TL1A binding antibody candidates were batch diluted to approximately 1.7-13.3 nM (either after Protein A purification or directly from CHO supernatant) and injected onto the chip. Non-regenerative kinetics were measured by injecting TL1A monomer starting at a concentration of 2.57E-10 M, with 6-fold increase in concentration up to 3.33E-07 M at pH 7.4 and 5.8, respectively. Likewise, non-regenerative kinetics were also measured for TL1A trimer starting at a concentration of 2.57E-10 M, with 6-fold increase in concentration up to 3.33E-07 M at pH 7.4. Each analyte injection flowed over the array at […] for a 5-minute association phase, followed by a 10-minute buffer dissociation phase. Binding was detected and relative capture response units (RU) were collected for each antibody on the surface.

B1: bispecific antibody candidate II-1 (bispecific antibody, IgG1, V domains shown)
VH 1: QVQLVQSGAEVKKPGSSVKVSCKASGGTFTIYAISWVRQAPGQGLEWMGGILPIFGTGHYVQKFQGRVTITADESTSTSYMELSSLRSEDTAVYYCAREPENWGQGTLVTVSS
VH 2: QVQLQESGPGLVEPSGTLSLTCAVSGGSISSRNWWSWVRQPPGKGLEWIGEIYHSGSTNYNPSLKSRVTISVDKSKNQFSLNLNSVTAADTAVYYCARDNDILTGYFDGYFDYWGQGTLVTVSS
VL: not shown
notes: hIgG1, 1:1 knob-in-hole; also called 11-1; knob-in-hole bispecific antibody
Does B1 bind [1]?
Result: binds

Does B1 bind [2]?
Result: binds

B2: bispecific antibody candidate II-2 (bispecific antibody, IgG1, V domains shown)
VH 1: QVQLVQSGAEVKKPGASVKVSCTASGDAFTGDSIHWVRQAPGQGLEWMGWITPNSGGTSYAQRFQGRVTLTRDTSISTVYMDLRRLRSDDTAVYFCASGLTVPFDYWGQGTLVTVSS
VH 2: QVQLQESGPGLVEPSGTLSLTCAVSGGSISSRNWWSWVRQPPGKGLEWIGEIYHSGSTNYNPSLKSRVTISVDKSKNQFSLNLNSVTAADTAVYYCARDNDILTGYFDGYFDYWGQGTLVTVSS
VL: not shown
notes: hIgG1, 1:1 knob-in-hole; also called 11-2; knob-in-hole bispecific antibody
Does B2 bind [1]?
Result: binds

Does B2 bind [2]?
Result: binds

B3: TL1A binding antibody candidate 7 of TABLE 47 (VH SEQ ID NO: 909, VL SEQ ID NO: 1768) (antibody, V domains shown)
VH: QVQLQESGPGLVKPSGTLSLTCAVSGGSISSRNWWSWVRQPPGKGLEWIGEIYHSGSTNYNPSLKSRVTISVDKSKNQFSLNLKSVTAADTAVYYCARDNDILTGYFDGYFDYWGQGTLVTVSS
VL: not shown
notes: It was expressed in CHO cells and captured by an anti-human IgG-Fc antibody (human IgG Fc)
For B3, which Kd [3] is on record?
Its Kd is 4.57 nM.

B4: TL1A binding antibody candidate 5 of TABLE 47 (VH SEQ ID NO: 907, VL SEQ ID NO: 1768) (antibody, V domains shown)
VH: QVQLQESGPGLVKPSGTLSLTCAVSGGSITSRNWWSWVRQPPGKGLEWIGEIYHSGSTNYNPSLKSRVTISVDKSKNQFSLNLNSVTAADTAVYYCARDNDILTGYFDGYFDYWGQGTLVTVSS
VL: not shown
notes: as for B3
For B4, which Kd [3] is on record?
The Kd was 5.19 nM.

B5: TL1A binding antibody candidate 2 of TABLE 47 (VH SEQ ID NO: 903, VL SEQ ID NO: 1768) (antibody, V domains shown)
VH: QVQLQESGPGLVKPSGTLSLTCAVSGGSISSRNWWSWVRQPPGKGLEWIGEIYHSGSTNYNPSLKSRVTISVDKSKNQFSLNLNSVTAADTAVYYCARDNDILDGYFDGYFDYWGQGTLVTVSS
VL: not shown
notes: as for B3
Which Kd [3] does the source give for B5 here?
The Kd was 5.53 nM.

B6: TL1A binding antibody candidate 6 of TABLE 47 (VH SEQ ID NO: 908, VL SEQ ID NO: 1768) (antibody, V domains shown)
VH: QVQLQESGPGLVKPSGTLSLTCAVSGGSISSRNWWSWVRQPPGKGLEWIGEIYHSGSTNYNPSLKSRVTISVDKSKNQFSLNVNSVTAADTAVYYCARDNDILTGYFDGYFDYWGQGTLVTVSS
VL: not shown
notes: as for B3
Which Kd [3] does the source give for B6 here?
Its Kd is 3.05 nM.

B7: TL1A binding antibody candidate 8 of TABLE 47 (VH SEQ ID NO: 933, VL SEQ ID NO: 1768) (antibody, V domains shown)
VH: QVQLQESGPGLVEPSGTLSLTCAVSGGSISSRNWWSWVRQPPGKGLEWIGEIYHSGSTNYNPSLKSRVTISVDKSKNQFSLNLNSVTAADTAVYYCARDNDILTGYFDGYFDYWGQGTLVTVSS
VL: not shown
notes: as for B3
With B7 as the binder, how does the Kd [3] read?
Its Kd is 9.66 nM.

B8: TL1A binding antibody candidate 1 of TABLE 47 (VH SEQ ID NO: 902, VL SEQ ID NO: 1768) (antibody, V domains shown)
VH: QVQLQESGPGLVKPSGTLSLTCAVSGGSISSRNWWSWVRQPPGKGLEWIGEIYHSGSTNYNPSLKSRVIISVDKSKNQFSLNLNSVTAADTAVYYCARDNDILTGYFDGYFDYWGQGTLVTVSS
VL: not shown
notes: as for B3
For B8, which Kd [3] is on record?
The Kd was 6.46 nM.
